According to patent US20250026838A1 (TRUEBINDING, published 2025):

Tests used:
[1] = molecular target: T1, Human Galectin-3 (Gal3) protein (human, UniProt P17931 1-250); experiment: competition ELISA, hGal3 coated; competitor: biotinylated hTGFβR2
T1 construct: also called hGal3; rhGal-3

[2] = molecular target: T1, Human Galectin-3 (Gal3) protein; experiment: competition ELISA, hGal3 coated; competitor: biotinylated aggregated alpha-synuclein

T1 sequence (P17931 whole entry): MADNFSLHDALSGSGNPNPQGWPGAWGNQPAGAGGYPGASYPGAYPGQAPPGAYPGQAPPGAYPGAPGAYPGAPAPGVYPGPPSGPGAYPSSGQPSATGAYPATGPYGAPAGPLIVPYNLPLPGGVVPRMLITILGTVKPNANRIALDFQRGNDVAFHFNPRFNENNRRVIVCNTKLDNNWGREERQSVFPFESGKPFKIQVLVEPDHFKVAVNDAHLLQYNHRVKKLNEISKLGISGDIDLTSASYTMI

Row | Binder | blocking efficacy [1] [%] | blocking efficacy [2] [%]
1 | 14H10.2C9-hIgG4 (S228P) (antibody, V domains shown, also called QC200137; IMTAB0172) VH: QIQLVQSGPELKKPGETVKISCKASGYTFTTYGMGWVKQAPGKDLKWMGWINTYSGVPTYADDFKGRFAFSLETSASTAYLQISNLKNEDTATYFCSTPYEYDGAYWGQGTLVTVSA VL: not shown | > 90 | > 70
2 | 846.1F5-hIgG4(S228P) (antibody, V domains shown, also called F846C.1F5; QC200110) VH: QIQLVQSGPELKKPGETVKISCKASGYTFTNYGMNWVKQAPGKGLKWMGWINTYTGEPSYADDFKGRFAFSLETSASTAYLQINNLKNEDMATYFCARWGGYDGDYYAMDYWGQGTSVTVSS VL: NIMMTQSPSSLAVSAGEKVTMSCKSSQSVLYSSNQKNYLAWYQQKPGQSPKLLIYWASTRESGVPDRFTGSGSGTDFTLTISSVQPEDLAVYYCHQYLSSLTFGAGTKLELK | – | > 70
3 | 846T.16B5-hIgG4(S228P) (antibody, V domains shown, also called F846T.16B5; F846TC.16B5) VH: QIQLVQSGPELKKPGETVKISCKASGYTFTNYGMNWVKQAPGKGLKWMGWINTYTGEPAYADDFKGRFAFSLETSASTAYLQINNLKNEDMATYFCARWGGYDGDYYAMDYWGQGTSVTVSS VL: NIMMTQSPSSLAVSAGEKVTMSCKSSQSVLYSSNQKNYLAWYQQKPGQSPKLLIYWASTRESGVPDRFTGSGSGTDFTLTISSVQAEDLAVYYCHQYLSSLTFGAGTKLELK | – | > 70
4 | 846.1H12-hIgG4(S228P) (antibody, V domains shown, also called F846C.1H12; QC200172 IMTAB0196) VH: QIQLVQSGPELKKPGETVKISCKASGYTFTNFGMNWVKQAPGKGLKWMGWINTYTGEPSYADDFKGRFAFSLETSASTAYLQINNLKNEDIATYFCARWGGYAGDYYAMDYWGQGTSVTVSS VL: NIMMTQSPSSLAVSAGQKVTMSCKSSQSVLYSSSQKNYLAWYQQKPGQSPKLLIYWASTRESGVPDRFSGSGSGTDFTLTISSVQPEDLAVYYCHQYLSSLTFGAGTKLELK | > 90 | –
5 | 846T.14A2-hIgG4(S338P) (antibody, V domains shown, also called F846TC.14A2; QC200122) VH: QIQLVQSGPELKKPGETVKISCKASGYTFTNYGMNWVKQAPGKGLKWMGWINTYTGEPTYAGDLKGRFAFSLETSASTAYLQINNLKNEDTATYFCVRYTMDYWGQGTSVTVSS VL: QAVVTQESALTTSPGETVTLTCRSSTGAVTTSNYANWVQEKPDHLFTGLIGGINNRVPGVPARFSGSLIGDKAALTITGAQTEDEAIYFCALWYSNHWVFGGGTKLTVL | – | > 70
6 | TB001 (antibody, V domains shown, also called hTB001; IMT001-4-HCLC (TB001)) VH: QVQLVQSGSELKKPGASVKVSCKASGYTFTNYGMNWVRQAPGQGLKWMGWINTNTGEPTYVEEFTGRFVFSLETSVSTAYLQISSLKAEDTAVYFCAPYDNFFAYWGQGTTVTVSS VL: DIVLTQSPLSLPVTPGEPASISCRSSKSLLYKDGKTYLNWFLQKPGQSPQLLIYLMSTHASGVPDRFSGSGSGTDFTLKISRVEAEDVGVYYCQQLVDYPLTFGGGTKLEIK | – | > 70
7 | 20D11.2C6-hIgG4(S228P) (antibody, V domains shown, also called QC200083) VH: EVQLQQSGPELVKPGASVKISCKASGYTFTDFYINWVKQSHGKSLEWIGDINPKNGGINYNPKFKIKATLTVDKSSSTSYMDLRGLTSEDSAVYYCTSGYGFPYWGQGTLVTVSA VL: DIQMNQSPSSLSASLGDTITITCRASQNIYIWLSWYQQKPGNIPKLLIYKASNLHTGVPSRFSGSGSGTDFTLTISTLQPEDIATYFCLQGQSYPLTFGAGTKLEMKR | – | > 70
8 | 15G7.2A7-hIgG4(S228P) (antibody, V domains shown, also called QC200074) VH: EVQLQQSGPELVKPGASVKISCKASGYTFTDYYMNWVKQSHGKSLEWIGDINPNNGGTNYNQKFKGKATLTVDKSSSTAYMELRSLTSEDSAVYYCTSGYGFPYWGQGTLVTVSA VL: DIQMNQSPSSLSASLGDTISITCRASQNINIWLSWYQQKPGNIPQLLIYKASNLHTGVPSRFSGSGSGTDFTLTISSLQPEDIATYYCLQGQSYPLTFGAGTKLVMK | – | > 70
9 | 84712F12-hIgG4(S288P) (antibody, V domains shown, also called 847.12F12-hIgG4 (S228P); F847C.12F12) VH: QIQLVQSGPELKKPGETVKISCKASGYTFTNYGMNWVKQAPGKGLKWMGWINTYTGEPTYVDDFKGRFAFSLETSASTAYLRINNLKNEDTATYFCAKFGNYVGAMDYWGQGTSVTVSS VL: DIQVIQSPSSLSASLGDTITITCHASQNINVWLSWYQQKPGNIPKLLIYKASNLHTGVPSRFSGSGSGTGFTLTISSLQPEDIATYYCQQGQSYPYTFGGGTKLELK | – | > 70
10 | TB006 (antibody, human IgG4 S228P, kappa, V domains shown, also called hTB006; hTB006Ab) VH: QVQLVQSGAEVKKPGASVKVSCKASGYSFTNYYMHWVRQAPGQRLEWMGWIYPGSGNTNYNEKFQGRVTITADTSASTAYMELSSLRSEDTAVYYCSTAPGGFDVWGQGTTVTVSS VL: DIVMTQTPLSLSVTPGQPASISCKSSKSLLHSDGITYLYWYLQKPGQSPQLLIYRMSNLASGVPDRFSGSGSGTDFTLKISRVEAEDVGVYYCAQMLEFPLTFGQGTKLEIKR | > 90 | > 70
